Common to all, as to experiment: EMSA
In general terms: A gel shift assay detects complexes by their altered migration in electrophoresis.

The subject of series [1] is R2Bm GR/AD/A mutant GR/AD/A (double point, presumptive alpha-finger). The following applies: 3' PBM RNA; reduced 24%; with 5' PBM RNA reduced about 13%.
Series [2] relates to R2Bm SR/AIR/A mutant SR/AIR/A (double point, presumptive alpha-finger). The following applies: 3' PBM RNA; reduced 13%; with 5' PBM RNA reduced 19-28%.
In series [3] the target is R2Bm protein (WT) (UniProt V9H052). To be noted: 3' or 5' PBM RNA; reference.
Sequence of UniProt V9H052 (V9H052 entry or part of it): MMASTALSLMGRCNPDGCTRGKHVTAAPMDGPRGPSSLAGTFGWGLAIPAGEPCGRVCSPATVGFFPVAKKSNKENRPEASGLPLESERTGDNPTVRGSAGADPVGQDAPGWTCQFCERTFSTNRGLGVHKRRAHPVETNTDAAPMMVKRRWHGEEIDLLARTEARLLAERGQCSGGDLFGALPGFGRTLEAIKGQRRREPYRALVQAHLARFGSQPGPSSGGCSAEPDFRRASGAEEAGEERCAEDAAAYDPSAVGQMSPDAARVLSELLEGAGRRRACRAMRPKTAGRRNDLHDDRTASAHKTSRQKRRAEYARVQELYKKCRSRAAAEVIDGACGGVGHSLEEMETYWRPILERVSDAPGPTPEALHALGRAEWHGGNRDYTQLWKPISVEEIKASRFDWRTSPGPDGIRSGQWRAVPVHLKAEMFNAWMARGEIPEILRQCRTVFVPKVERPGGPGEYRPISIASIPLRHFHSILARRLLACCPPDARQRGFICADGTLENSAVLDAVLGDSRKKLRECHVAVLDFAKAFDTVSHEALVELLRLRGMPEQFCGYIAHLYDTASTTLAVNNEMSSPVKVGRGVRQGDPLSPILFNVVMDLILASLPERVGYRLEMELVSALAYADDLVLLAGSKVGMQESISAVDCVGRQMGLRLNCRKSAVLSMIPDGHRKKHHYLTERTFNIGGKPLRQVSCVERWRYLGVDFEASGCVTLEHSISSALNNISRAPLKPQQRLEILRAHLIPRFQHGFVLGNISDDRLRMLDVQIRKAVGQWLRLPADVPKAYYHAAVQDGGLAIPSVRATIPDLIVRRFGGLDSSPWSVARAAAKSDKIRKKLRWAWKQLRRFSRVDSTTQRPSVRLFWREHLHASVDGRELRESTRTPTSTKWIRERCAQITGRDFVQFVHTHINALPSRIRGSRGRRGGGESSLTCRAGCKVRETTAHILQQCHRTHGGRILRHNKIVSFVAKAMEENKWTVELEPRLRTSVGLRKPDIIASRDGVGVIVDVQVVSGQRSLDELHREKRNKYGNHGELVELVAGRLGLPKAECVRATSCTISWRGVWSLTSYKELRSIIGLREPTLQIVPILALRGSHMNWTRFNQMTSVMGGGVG
Series [4] has as its system R2Bm SR/AGR/A mutant SR/AGR/A (double point, presumptive alpha-finger). To be noted: 3' PBM RNA (upstream binding); increased up to 32%.

Regarding linear 28S rDNA target, the binding signal (fraction of WT) was 0.76 in series [1], 0.87 in series [2], 1 in series [3] and 1.32 in series [4].

These data come from patent US20210340562.
